In article PMC10397247 one finds interaction score data, which are given here for one molecule.

Holding throughout (assay): two-hybrid library CCNG1;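 further: natural log of median RNA to DNA barcode read ratio; higher means stronger binding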
One assay deals with T1, 4H72-bH.
T1 chain: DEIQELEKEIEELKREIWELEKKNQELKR

Another assay deals with T2, 4H687-bH.
T2 chain: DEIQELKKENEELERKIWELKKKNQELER

The target of the next assay is T3, 4H953-bH.
T3 chain: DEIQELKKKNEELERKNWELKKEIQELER

A further assay has as its target T4, 4H967-bH.
T4 chain: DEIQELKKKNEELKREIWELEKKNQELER

The target of a further assay is T5, 4H797-bH.
T5 chain: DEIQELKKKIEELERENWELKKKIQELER

In another assay the target is T6, 4H370-bH.
T6 chain: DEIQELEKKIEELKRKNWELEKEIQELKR

The target of a further assay is T7, 4H4001-bH.
T7 chain: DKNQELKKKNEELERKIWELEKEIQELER

In another assay the target is T8, 4H3782-bH.
T8 chain: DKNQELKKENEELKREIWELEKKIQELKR

The target of a further assay is T9, 4H918-bH.
T9 chain: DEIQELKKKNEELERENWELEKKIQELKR

The next assay concerns the target T10, 4H607-bH.
T10 chain: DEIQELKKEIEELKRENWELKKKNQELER

The target of another assay is T11, 4H883-bH.
T11 chain: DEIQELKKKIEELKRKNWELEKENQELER

Another assay deals with T12, 4H3606-bH.
T12 chain: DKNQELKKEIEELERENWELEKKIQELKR
As to conditions: mean of both orientations.

The target of another assay is T13, 4H3843-bH.
T13 chain: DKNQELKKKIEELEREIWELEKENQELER

The next assay deals with T14, 4H568-bH.
T14 chain: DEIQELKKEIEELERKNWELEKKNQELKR

The next assay concerns the target T15, 4H462-bH.
T15 chain: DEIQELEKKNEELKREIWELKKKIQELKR

B1: 4H3606-bH (peptide)
chain: DKNQELKKEIEELERENWELEKKIQELKR
Regarding B1, the interaction score in the assay with 4H72-bH was -0.306; with 4H687-bH, -0.48; with 4H953-bH it was -1.36; with 4H967-bH, 1.21; with 4H797-bH, -0.0905; with 4H370-bH it was 1.69. For the same molecule, the interaction score in the assay with 4H4001-bH is 0.174; with 4H3782-bH, -0.967; with 4H918-bH it was -0.633; with 4H607-bH it was -0.729; with 4H883-bH, 0.484; with 4H3606-bH, -0.593. The interaction score in the assay with 4H3843-bH was 0.511; with 4H568-bH, 1.11; with 4H462-bH, -0.116.
